Results taken from US20110256122A1 (published 2011).

Biological target: T1, recombinant human TNF R1/TNFRSF1A/Fc chimera (R+D Systems) (human, UniProt P19438 30-211)
T1 construct: Bought chimera; also called TNF-αR1; TNFR1 Fc; Fc part of the bought chimera not given
T1 sequence (looked up): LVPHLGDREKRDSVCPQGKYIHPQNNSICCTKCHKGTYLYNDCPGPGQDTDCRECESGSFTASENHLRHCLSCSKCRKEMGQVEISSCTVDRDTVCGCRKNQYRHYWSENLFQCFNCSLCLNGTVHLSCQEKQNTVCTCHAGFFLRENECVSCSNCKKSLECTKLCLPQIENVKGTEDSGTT
Assay: sandwich ELISA, TNF R1 Fc chimera coated on the plate, anti-human IgG F(ab)2 then anti-goat/sheep-HRP detection

binding result: binds
B1: Dom 1h-131-206 (other)
chain: EVQLLESGGGLVQPGGSLRLSCAASGFTFAHETMVWVRQAPGKGLEWVSHIPPDGQDPFYADSVKGRFTISRDNSKNTLYLQMNSLRAEDTAVYHCALLPKRGPWFDYWGQGTLVTVSS
notes: Immunoglobulin single variable domain (dAb) with specificity for TNF-αR1; also called α-TNF-αR1 dAb; anti TNF alpha R1 dAb
